{"source": "paper PMC6211226", "about": "“Intracellular Signaling by the comRS System in Streptococcus mutans Genetic Competence” (mSphere, 2018)", "key": {"[1]": {"biological_target": "ComR;XIP (Streptococcus mutans UA159;Streptococcus mutans) (UniProt Q8DWI6)", "test": "fluorescence polarization", "conditions": "Previously described reaction buffer (ref 53; composition not given) + 1 mM EDTA, 0.05 mg/ml salmon DNA, 1 nM probe, 37 C, 20 min; ComR dialyzed into PBS pH …"}, "[2]": {"biological_target": "XIP (sigX-inducing peptide), synthetic (Streptococcus mutans)", "test": "fluorescence polarisation; ComR titrated into 1 nM Bodipy FL-X-labelled PcomX stem-loop DNA probe with 10 µM XIP or ComS, 0.05 mg/ml salmon DNA, 1 mM EDTA, 37°C 20 min; together with competition by unlabeled DNA at 1.5 µM ComR; read-out is on the DNA probe, k1 and n of the ComR/peptide complex come from the fit of a two-step cooperative model"}, "[3]": {"biological_target": "ComS (full-length, 17 residues), synthetic (Streptococcus mutans)", "test": "fluorescence polarisation; ComR titrated into 1 nM Bodipy FL-X-labelled PcomX stem-loop DNA probe with 10 µM XIP or ComS, 0.05 mg/ml salmon DNA, 1 mM EDTA, 37°C 20 min; together with competition by unlabeled DNA at 1.5 µM ComR; read-out is on the DNA probe, k1 and n of the ComR/peptide complex come from the fit of a two-step cooperative model"}, "ComR": {"system": "ComR", "test": "Fluorescence polarization competition assay with unlabeled DNA probes", "assay_type": "binding", "conditions": "1.5 µM ComR, 10 µM ComS or XIP, 1 nM labeled PcomX DNA; PcomS vs PcomX", "experimental": "FIG 5 ComS and XIP interact with ComR to bind the comX promoter. A fluorescence polarization assay testing interaction of ComS and XIP peptides with ComR and the PcomX transcriptional activation site was performed. The DNA probe was labeled with a Bodipy FL-X fluorophore. (A) Titration of ComR into a solution containing 10 µM XIP (blue) or full-length ComS (green), labeled DNA probe (1 nM), and 0.05 mg ml^−^1 salmon DNA. The negative control (black) contained no ComS or XIP peptide. (B) Competition assay in which unlabeled promoter sequence DNA was titrated into a solution containing ComR (1.5 µM), fluorescent DNA probe (1 nM), and peptide (either ComS or XIP, 10 µM). Unlabeled PcomX DNA was used with XIP (blue) and ComS (green). An unlabeled PcomS probe was also tested for its ability to compete with the fluorescent PcomX probe in the presence of XIP (red) and ComS (gold). […]\nCompeting unlabeled probe assays were performed with 1.5 µM ComR in the same buffer containing 1 nM PcomX fluorescent DNA and 10 µM SHP (either ComS or XIP). […] Reaction mixtures were again incubated at 37°C for 20 min before polarization readings were taken. In all FP experiments, reading was performed three times on the same plate to estimate instrument error. […]"}, "ComR;ComS [4]": {"biological_target": "T1, ComR;ComS (Streptococcus mutans …, UniProt Q8DWI6; 1-304;, |)", "test": "fluorescence polarization; 10 uM ComS; k2 of two-step model (k1 = 3.2 uM, n = 2.5), global fit with competition; not precisely determined, Text S3 gives k2 range 30-200 nM; Previously described reaction buffer (ref 53; composition not given) + 1 mM EDTA, 0.05 mg/ml salmon DNA, 1 nM probe, 37 C, 20 min; ComR dialyzed into PBS pH 7.4", "conditions": "tags: His6 tag (pET-45b(+), N-terminal) cleaved with EKMax;; chain copies: 2;2; label: 5' Bodipy FL-X; hairpin, 20 bp stem, CCCCC loop"}, "ComR;ComS [5]": {"biological_target": "T1, ComR;ComS", "test": "competition (fluorescence polarization); 1.5 uM ComR, 10 uM ComS, 1 nM labeled PcomX; affinity appears identical to PcomX; Previously described reaction buffer (ref 53; composition not given) + 1 mM EDTA, 0.05 mg/ml salmon DNA, 1 nM probe, 37 C, 20 min; ComR dialyzed into PBS pH 7.4", "conditions": "tags: His6 tag (pET-45b(+), N-terminal) cleaved with EKMax;; chain copies: 2;2; hairpin, 20 bp stem, CCCCC loop"}}, "note": "{BodipyFLX} = Bodipy FL-X fluorophore label on the DNA probe"}
{"molecule": "ATGGGACATTTATGTCCTGTCCCCCACAGGACATAAATGTCCCAT [PcomX stem-loop probe]", "values": [{"measurement": "Kd", "setting": "[1]", "value": 33, "unit": "nM"}]}
{"molecule": "ComR (native, histidine tag cleaved) (receptor)", "values": [{"measurement": "Kd", "setting": "[2]", "value": 7.3, "unit": "µM"}, {"measurement": "n (order of multimerization of the ComR/peptide complex, two-step model)", "setting": "[2]", "value": 2.4}, {"measurement": "Kd", "setting": "[3]", "value": 3.2, "unit": "µM"}, {"measurement": "n (order of multimerization of the ComR/peptide complex, two-step model)", "setting": "[3]", "value": 2.5}]}
{"molecule": "PcomX: self-annealing stem-loop DNA, 5′-ATGGGACATTTATGTCCTGTCCCCCACAGGACATAAATGTCCCAT-3′ (5′-Bodipy FL-X in labeled probe) (DNA, 5' {BodipyFLX}, backbone and methylation of C not given here)", "values": [{"measurement": "affinity of unlabeled probe for ComR by competition", "setting": "ComR", "value": "appear to have identical levels of affinity for ComR"}]}
{"molecule": "ATGGGACATTTATGTCCTGTCCCCCACAGGACATAAATGTCCCAT (structured_DNA)", "note": "[PcomX stem-loop probe]", "values": [{"measurement": "Kd", "setting": "ComR;ComS [4]", "value": 2.2, "unit": "nM"}]}
{"molecule": "ACGGGACATAAATGTCCTGTCCCCCACAGGACATTTATGTCCCGT (structured_DNA)", "note": "[PcomS stem-loop, unlabeled]", "values": [{"measurement": "binding result", "setting": "ComR;ComS [5]", "value": "binds"}]}
